From paper PMC9482650, “Quantitative fragmentomics allow affinity mapping of interactomes” (Nature Communications, 2022)

T1: SNTA1, Q13424
T1 sequence (Q13424 82-180, limits assumed, looked up): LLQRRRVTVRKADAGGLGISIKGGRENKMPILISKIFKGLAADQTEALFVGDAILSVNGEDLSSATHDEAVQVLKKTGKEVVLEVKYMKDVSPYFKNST

T2: MPDZ_10, O75970
T2 sequence (O75970 1624-1722, limits assumed, looked up): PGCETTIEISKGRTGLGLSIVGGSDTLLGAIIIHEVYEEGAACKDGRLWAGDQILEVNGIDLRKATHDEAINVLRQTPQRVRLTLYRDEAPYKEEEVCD

T3: LIN7B, Q9HAP6
T3 sequence (Q9HAP6 88-185, limits assumed, looked up): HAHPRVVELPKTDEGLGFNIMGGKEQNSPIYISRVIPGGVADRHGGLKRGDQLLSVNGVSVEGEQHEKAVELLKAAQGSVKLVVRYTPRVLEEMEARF

T4: SNTG2, Q9NY99
T4 sequence (Q9NY99 68-166, limits assumed, looked up): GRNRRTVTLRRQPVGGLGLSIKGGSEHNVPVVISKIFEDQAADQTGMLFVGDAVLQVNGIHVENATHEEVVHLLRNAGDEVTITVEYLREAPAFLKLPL

T5: TIAM2, Q8IVF5
T5 sequence (Q8IVF5 885-986, limits assumed, looked up): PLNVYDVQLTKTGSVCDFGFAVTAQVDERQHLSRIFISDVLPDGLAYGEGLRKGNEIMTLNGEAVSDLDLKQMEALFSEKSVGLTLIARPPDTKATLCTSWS

T6: HTRA4, P83105
T6 sequence (P83105 378-476, limits assumed, looked up): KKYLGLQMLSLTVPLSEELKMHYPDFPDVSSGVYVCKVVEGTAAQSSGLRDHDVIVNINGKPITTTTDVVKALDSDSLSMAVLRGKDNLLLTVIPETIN

T7: SNTG1, Q9NSN8
T7 sequence (Q9NSN8 52-150, limits assumed, looked up): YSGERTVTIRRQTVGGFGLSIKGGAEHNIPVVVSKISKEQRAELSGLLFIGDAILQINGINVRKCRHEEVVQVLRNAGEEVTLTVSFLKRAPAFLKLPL

T8: DFNB31_1, Q9P202
T8 sequence (Q9P202 135-233, limits assumed, looked up): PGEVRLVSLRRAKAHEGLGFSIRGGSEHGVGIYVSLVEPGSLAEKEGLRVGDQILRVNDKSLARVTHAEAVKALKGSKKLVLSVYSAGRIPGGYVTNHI

T9: RAPGEF6, Q8TEU7
T9 sequence (Q8TEU7 525-625, limits assumed, looked up): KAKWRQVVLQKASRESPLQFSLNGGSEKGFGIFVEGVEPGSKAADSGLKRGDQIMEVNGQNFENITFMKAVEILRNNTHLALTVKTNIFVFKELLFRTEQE

T10: NHERF3_1, Q5T2W1
T10 sequence (Q5T2W1 4-100, limits assumed, looked up): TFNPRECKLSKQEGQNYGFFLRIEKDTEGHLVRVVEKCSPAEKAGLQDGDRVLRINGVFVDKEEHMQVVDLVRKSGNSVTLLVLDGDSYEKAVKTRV

T11: DLG3_2, Q92796
T11 sequence (Q92796 221-321, limits assumed, looked up): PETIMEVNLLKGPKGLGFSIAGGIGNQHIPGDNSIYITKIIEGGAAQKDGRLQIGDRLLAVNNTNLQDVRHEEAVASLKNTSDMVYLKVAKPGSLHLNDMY


Columns and labels:
Test in all cases: holdup assay
Parameters in all cases: key: below the threshold = too weak to quantify, mostly under pKd 3.1 to 4
Conditions in all cases: plain residues with an end cap or a label only (N-terminal biotin on a linker: ado-ado)
SNTA1, Q13424 = molecular target: T1, SNTA1, Q13424
DLG5_1, Q8TDM6 = molecular target: DLG5_1, Q8TDM6
GOPC, Q9HD26 = molecular target: GOPC, Q9HD26
PARD3_3, Q8TEW0 = molecular target: PARD3_3, Q8TEW0
Inadl_8, Q8NI35 = molecular target: Inadl_8, Q8NI35
MPDZ_10, O75970 = molecular target: T2, MPDZ_10, O75970
PDLIM1, O00151 = molecular target: PDLIM1, O00151
LIN7B, Q9HAP6 = molecular target: T3, LIN7B, Q9HAP6
IL16_4, Q14005 = molecular target: IL16_4, Q14005
SNTG2, Q9NY99 = molecular target: T4, SNTG2, Q9NY99
NOS1, P29475 = molecular target: NOS1, P29475
LIMK2, P53671 = molecular target: LIMK2, P53671
DLG4_3, P78352 = molecular target: DLG4_3, P78352
TIAM2, Q8IVF5 = molecular target: T5, TIAM2, Q8IVF5
SCRIB_1, Q14160 = molecular target: SCRIB_1, Q14160
HTRA4, P83105 = molecular target: T6, HTRA4, P83105
SNTG1, Q9NSN8 = molecular target: T7, SNTG1, Q9NSN8
FRMPD2_2, Q68DX3 = molecular target: FRMPD2_2, Q68DX3
DFNB31_1, Q9P202 = molecular target: T8, DFNB31_1, Q9P202
GRIP2_5, Q9C0E4 = molecular target: GRIP2_5, Q9C0E4
CASK, O14936 = molecular target: CASK, O14936
RAPGEF6, Q8TEU7 = molecular target: T9, RAPGEF6, Q8TEU7
GORASP2, Q9H8Y8 = molecular target: GORASP2, Q9H8Y8
NHERF3_1, Q5T2W1 = molecular target: T10, NHERF3_1, Q5T2W1
IL16_1, Q14005 = molecular target: IL16_1, Q14005
DLG3_2, Q92796 = molecular target: T11, DLG3_2, Q92796

CASK, O14936, sequence (O14936 487-570): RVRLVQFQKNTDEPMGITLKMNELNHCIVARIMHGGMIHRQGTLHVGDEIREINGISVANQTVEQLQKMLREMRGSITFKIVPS
NOS1, P29475, sequence (P29475 9-101): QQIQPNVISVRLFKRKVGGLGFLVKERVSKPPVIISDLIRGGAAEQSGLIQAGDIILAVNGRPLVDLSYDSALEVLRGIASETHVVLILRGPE
IL16_4, Q14005, sequence (Q14005 1229-1329): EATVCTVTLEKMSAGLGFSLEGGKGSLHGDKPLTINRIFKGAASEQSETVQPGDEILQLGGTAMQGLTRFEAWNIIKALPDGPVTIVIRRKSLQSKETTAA
FRMPD2_2, Q68DX3, sequence (Q68DX3 944-1038): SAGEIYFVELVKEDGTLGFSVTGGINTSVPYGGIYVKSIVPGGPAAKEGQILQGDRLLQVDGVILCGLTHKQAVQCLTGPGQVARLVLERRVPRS
SCRIB_1, Q14160, sequence (Q14160 718-814): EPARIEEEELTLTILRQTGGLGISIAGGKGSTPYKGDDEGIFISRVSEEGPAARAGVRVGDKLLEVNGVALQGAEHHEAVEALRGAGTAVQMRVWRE
GRIP2_5, Q9C0E4, sequence (Q9C0E4 544-642): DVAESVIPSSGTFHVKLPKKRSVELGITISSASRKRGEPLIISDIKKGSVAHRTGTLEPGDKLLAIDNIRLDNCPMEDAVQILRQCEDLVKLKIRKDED
IL16_1, Q14005, sequence (Q14005 210-306): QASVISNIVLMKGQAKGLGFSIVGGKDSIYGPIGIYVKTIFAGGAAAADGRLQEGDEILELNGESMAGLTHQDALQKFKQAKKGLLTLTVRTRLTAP
Inadl_8, Q8NI35, sequence (Q8NI35 1425-1530): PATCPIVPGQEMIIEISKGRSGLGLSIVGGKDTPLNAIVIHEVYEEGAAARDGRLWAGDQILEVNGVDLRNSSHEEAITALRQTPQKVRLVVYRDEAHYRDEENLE
PARD3_3, Q8TEW0, sequence (Q8TEW0 582-685): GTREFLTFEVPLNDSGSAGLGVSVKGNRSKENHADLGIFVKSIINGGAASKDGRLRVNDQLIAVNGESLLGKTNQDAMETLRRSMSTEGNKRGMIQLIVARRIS
DLG5_1, Q8TDM6, sequence (Q8TDM6 617-713): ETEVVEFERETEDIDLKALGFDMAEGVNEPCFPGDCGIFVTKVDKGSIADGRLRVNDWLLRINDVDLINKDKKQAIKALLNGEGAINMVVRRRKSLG
LIMK2, P53671, sequence (P53671 143-248): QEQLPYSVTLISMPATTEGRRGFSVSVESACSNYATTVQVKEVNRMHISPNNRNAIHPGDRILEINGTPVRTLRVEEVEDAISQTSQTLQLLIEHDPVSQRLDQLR
PDLIM1, O00151, sequence (O00151 1-87): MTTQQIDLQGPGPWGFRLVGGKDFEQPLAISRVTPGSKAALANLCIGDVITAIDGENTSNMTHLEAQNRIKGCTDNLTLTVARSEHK
DLG4_3, P78352, sequence (P78352 306-403): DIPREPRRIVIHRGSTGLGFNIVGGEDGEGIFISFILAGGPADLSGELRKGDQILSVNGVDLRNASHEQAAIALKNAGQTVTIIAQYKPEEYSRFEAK

Row | pKd (SNTA1, Q13424) | pKd (DLG5_1, Q8TDM6) | pKd (GOPC, Q9HD26) | pKd (PARD3_3, Q8TEW0) | pKd (Inadl_8, Q8NI35) | pKd (MPDZ_10, O75970) | pKd (PDLIM1, O00151) | pKd (LIN7B, Q9HAP6) | pKd (IL16_4, Q14005) | pKd (SNTG2, Q9NY99) | pKd (NOS1, P29475) | pKd (LIMK2, P53671) | pKd (DLG4_3, P78352) | pKd (TIAM2, Q8IVF5) | pKd (SCRIB_1, Q14160) | pKd (HTRA4, P83105) | pKd (SNTG1, Q9NSN8) | pKd (FRMPD2_2, Q68DX3) | pKd (DFNB31_1, Q9P202) | pKd (GRIP2_5, Q9C0E4) | Binder | further results
1 | 4.77 | below the threshold | 3.99 | 3.78 | below the threshold | below the threshold | below the threshold | 4.13 | below the threshold | 4.81 | 3.85 | below the threshold | below the threshold | 4.1 | 4.93 | below the threshold | 4.94 | 3.92 | 5.32 | below the threshold | SKENVQETQI [LRRC4B, Q9NT99] | pKd (CASK, O14936): below the threshold; pKd (RAPGEF6, Q8TEU7): 3.52; pKd (GORASP2, Q9H8Y8): below the threshold; pKd (NHERF3_1, Q5T2W1): 5.07; pKd (IL16_1, Q14005): below the threshold; pKd (DLG3_2, Q92796): 4.69
2 | below the threshold | below the threshold | below the threshold | below the threshold | below the threshold | below the threshold | below the threshold | below the threshold | 3.64 | below the threshold | below the threshold | below the threshold | below the threshold | below the threshold | below the threshold | 4.14 | 3.54 | below the threshold | 3.69 | below the threshold | EVNETDDTKM [KCNJ1, P48048] | pKd (CASK, O14936): below the threshold; pKd (RAPGEF6, Q8TEU7): below the threshold; pKd (GORASP2, Q9H8Y8): below the threshold; pKd (NHERF3_1, Q5T2W1): 5.39; pKd (IL16_1, Q14005): below the threshold; pKd (DLG3_2, Q92796): 3.63
3 | 3.91 | below the threshold | 4.83 | 3.5 | below the threshold | below the threshold | below the threshold | below the threshold | below the threshold | 4.44 | 3.57 | below the threshold | below the threshold | 3.65 | 3.79 | below the threshold | below the threshold | below the threshold | 4.42 | below the threshold | GQEEQVTTRL [TRPC5, Q9UL62] | pKd (CASK, O14936): below the threshold; pKd (RAPGEF6, Q8TEU7): below the threshold; pKd (GORASP2, Q9H8Y8): below the threshold; pKd (NHERF3_1, Q5T2W1): 5.17; pKd (IL16_1, Q14005): below the threshold; pKd (DLG3_2, Q92796): 3.97
4 | 4.9 | below the threshold | below the threshold | below the threshold | below the threshold | below the threshold | below the threshold | 4.47 | below the threshold | 4.95 | below the threshold | below the threshold | below the threshold | 3.94 | 4.3 | below the threshold | 4 | below the threshold | 4.41 | below the threshold | NLSIEKETKL [ASNSD1, Q9NWL6] | pKd (CASK, O14936): below the threshold; pKd (RAPGEF6, Q8TEU7): below the threshold; pKd (GORASP2, Q9H8Y8): below the threshold; pKd (NHERF3_1, Q5T2W1): 6.04; pKd (IL16_1, Q14005): below the threshold; pKd (DLG3_2, Q92796): 4.24
5 | below the threshold | below the threshold | below the threshold | below the threshold | 3.91 | below the threshold | below the threshold | 3.78 | below the threshold | below the threshold | below the threshold | below the threshold | 3.53 | 3.95 | 3.87 | below the threshold | below the threshold | below the threshold | below the threshold | below the threshold | VNKSKLLTDV [KCNA1, Q09470] | pKd (CASK, O14936): below the threshold; pKd (RAPGEF6, Q8TEU7): 3.53; pKd (GORASP2, Q9H8Y8): 3.91; pKd (NHERF3_1, Q5T2W1): below the threshold; pKd (IL16_1, Q14005): below the threshold; pKd (DLG3_2, Q92796): 4.7
6 | 3.59 | below the threshold | below the threshold | below the threshold | below the threshold | below the threshold | 4.75 | 3.76 | below the threshold | below the threshold | below the threshold | below the threshold | below the threshold | 4.18 | 4.23 | below the threshold | 4.12 | below the threshold | below the threshold | below the threshold | SSALYGESDL [ACTN2, P35609] | pKd (CASK, O14936): below the threshold; pKd (RAPGEF6, Q8TEU7): 3.6; pKd (GORASP2, Q9H8Y8): below the threshold; pKd (NHERF3_1, Q5T2W1): 3.57; pKd (IL16_1, Q14005): below the threshold; pKd (DLG3_2, Q92796): 4.18
